Data on one molecule can be found in patent US10632208B2, “Peptide-mediated drug delivery across epithelial barrier” (Purdue Research Foundation, priority 2017, dated 2020).

One test has as its system Caco-2 cell monolayers. The experiment in a line: Transepithelial electrical resistance (TEER) of Caco-2 monolayers on Transwell inserts. The format is cell-based, human.
For another test, the system named is MLCK. The experiment in a line: Immunoblot of MLCK and P-MLC in whole-cell Caco-2 lysates. The format is cell-based, human. To be noted: purified LAP 1 μg/mL, 60 min pi. The method, then: (§1) To extract the proteins from Caco-2 cells, cells were seeded in 6-well plates for 14-21 days. Following treatment, the cells were washed, scraped from the bottom of 6-well plates, suspended in PBS, and pelleted by centrifugation. Total protein from Caco-2 cells was extracted using the M-PER Extraction Kit (Thermo Fisher Scientific). Detergent-insoluble (membrane) and detergent-soluble (cytosolic) proteins were isolated using a Mem-Per Eukaryotic Protein Extraction Kit (Thermo Fisher Scientific) while the cytosolic and nuclear proteins were extracted using NE-PER Extraction Reagent (Thermo Fisher Scientific). To extract proteins from ileal epithelial cells, the epithelial cell fraction from ileal tissues were isolated as described above and the detergent-insoluble and the detergent-soluble proteins were isolated using a Mem-Per Eukaryotic Protein Extraction Kit.
To extract total protein from intact bacterial cells, sample solvent buffer and sonication (3 cycles of 20 min each) were used. […] The protein concentrations were determined by BCA assay (Thermo Fisher Scientific), and separated on SDS-PAGE gels (10-12.5% polyacrylamide) and electro-transferred to polyvinylidene difluoride (PVDF) membrane (Millipore). […] To compare the reaction intensities, the average band densities were determined using Quantity One software (Bio-Rad). […]
Background: In western blotting, separated proteins are transferred to a membrane and probed.

The next test concerns IL-6. The experiment in a line: ELISA of IL-6 in Caco-2 cell supernatants. As to conditions: recombinant LAP 1 μg/mL, 8 h. Format: cell-based, human. How it is done:
A semi-quantitative membrane-based RayBio Human Inflammation Antibody Array kit (Ray Biotech) was used to analyze a panel of 40 inflammatory mediators in Caco-2 cell supernatant infected either with the WT or lap^− strain (MOI, ˜50) at 37° C. for 1 h. After killing the extracellular bacteria by gentamicin (50 μg/mL), the Caco-2 cells were incubated for an additional 7 h at 37° C. Recombinant LAP (1 μg/mL) from ClearColi was incubated for 8 h with Caco-2 cells. After immunoblotting, the reaction intensity was quantified using NIH ImageJ software. The data were normalized and expressed as the mean fold changes as a ratio of lap^−/WT±SEM. For the ELISA, Caco-2 cell supernatants were centrifuged (2,000 rpm at 4° C. for 10 min) following treatment as above, and the quantification of TNF-α and IL-6 in was performed using human TNF-α and IL-6 ELISA kits (Ray Biotech) as per manufacturer's instruction. The quantification of TNF-α and IL-6 protein levels was performed in the ileal tissue lysates from mice using mouse TNF-α and IL-6 ELISA kits (Ray Biotech) as per manufacturer's instruction.
For orientation: In an ELISA, binding on a coated surface is turned into a signal by an enzyme label.

Another test relates to NF-κB(p65). The test is described as follows: Immunoblot of NF-κB activation in Caco-2 cytoplasmic and nuclear extracts. The format is cell-based, human. The method, then: as §1
To extract total protein from intact bacterial cells, sample solvent buffer and sonication (3 cycles of […]) were used. To isolate the cell wall-associated proteins bacterial pellets were resuspended in 0.5 ml protein extraction buffer (0.5% SDS, 10 mM Tris at pH 6.9), and incubated at 37° C. for 30 min with agitation. The samples were centrifuged (14,000×g, 10 min, 4° C.), and the supernatants (containing cell wall-associated proteins) were retained. Halt proteases and phosphatase inhibitors (Thermo Fisher Scientific) were used during all of the protein extraction procedures. The protein concentrations were determined by BCA assay (Thermo Fisher Scientific), and separated on SDS-PAGE gels (10-12.5% polyacrylamide) and electro-transferred to polyvinylidene difluoride (PVDF) membrane (Millipore). The membranes were then blocked in 5% nonfat dry milk (NFDM) in 0.1 M Tris-buffered saline, pH 7.5 (TBS) containing 0.1% Tween 20 (TBST) for at least 1 h. All of the primary antibodies were diluted in 5% bovine serum albumin (BSA) or 5% NFDM in TBST and incubated overnight. Secondary antibodies (1:2000 in 5% NFDM in TBST) incubated for 1 h at 37° C., and a chemiluminescence method was performed using LumiGLO reagent (Cell Signaling). The membranes were exposed to X-ray films or visualized using the Chemi-Doc XRS system (Bio-Rad). To immunoprobe the same membrane with another antibody, the originally bound antibodies from the membranes were removed by incubating the membranes in Restore Western Blot Stripping Buffer (Thermo Fisher Scientific) according to the manufacturer's protocol. To compare the reaction intensities, the average band densities were determined using Quantity One software (Bio-Rad). Densitometry reports represent the mean±SEM after normalization to the loading control and is presented as % change of protein with the average for untreated cells (control) set at 100%. Immunoblots and densitometric reports are representative of 2-3 independent experiments.

Another test relates to L. monocytogenes. The experiment in a line: Translocation of L. monocytogenes through polarized Caco-2 monolayers on Transwell filter-inserts. As to conditions: LAP 1 or 2 μg/mL, MOI 50. Format: cell-based, Listeria monocytogenes. How it is done: Caco-2 cells were grown as monolayers on Transwell inserts with 3.0 μm pores (Corning-Costar) for up to 14-21 days. TEER was measured to monitor the monolayer integrity (Millicells Voltmeter, Millipore). A TEER value of at least 200 Ω/cm^2 (±10) was used as the basal value to monitor the monolayer integrity. Bacterial cells were washed three times in PBS and resuspended in DMEM-FBS (10%) at a MOI of ˜50 and were added to the apical side of the Transwell system, and after 2 h incubation period at 37° C. in 5% CO2, the liquid was collected from the basal well, and then translocated bacteria were enumerated by plating (Burkholder and Bhunia, 2010). For analysis of FD4 flux, non-metabolizable 4 kDa FITC-labeled dextran (FD4; 5 mg/ml, Sigma-Aldrich) was added with bacteria (MOI, ˜50) resuspended in DMEM-FBS (10%) and added to the apical side. After 2 h incubation at 37° C. in 5% CO2, the liquid was collected from the basal well and fluorescence was measured (Em: 485 nm; Ex: 520 nm; Spectramax, Molecular Devices). For pharmacological inhibition treatments, PDTC (100 μM for 30 min pre-treatment; R&D Systems), Bay-11-7085 (10 μM for 30 min pre-treatment; Sigma-Aldrich), ML-9 (20 μM for 30 min pre-treatment; Sigma-Aldrich), PIK (150 μM, 30 min-pre-treatment and kept during 2-h infection) (Zolotarevsky et al., 2002), and Cytochalasin D (1 μg/mL for 1 h; Sigma-Aldrich) were used separately.
For re-association of externally added LAP to the lap^− mutant, bacteria were harvested from 1 ml of overnight grown culture, and the pellet was washed three times in PBS before the addition of 1 or 2 μg/mL of purified LAP. The mixture was incubated for 30 min at 30° C. with continuous shaking and then pelleted, washed five times in the PBS, resuspended in DMEM, and used in the aforementioned translocation assay.

The mark [1] stands for this setting: Caco-2 cells, LAP 1 μg/ml, 30 min (FIG. 5D).
The mark [2] stands for this setting: LAP 1000 ng/mL or TNF-α 10 ng/mL.
[3] abbreviates: shRNA vector control Caco-2 cells, LAP 1 μg/mL (FIG. 5B).

Some results are limits rather than exact numbers.

B1: LAP: Listeria adhesion protein, alcohol acetaldehyde dehydrogenase of Listeria monocytogenes, 866 aa, 94 kDa; recombinant, histidine-tagged form SEQ ID NO: 10 (protein)
chain: MAIKENAAQEVLEVQKVIDRLADNGQKALKAFESYNQEQVDNIVHAMALAGLDQHMPLAKLAVEETGRGLYEDKCIKNIFATEYIWNNIKNNKTVGVINEDVQTGVIEIAEPVGVVAGVTPVTNPTSTTLFKAIIAIKTRNPIIFAFHPSAQRCSSAAAKVVYDAAIAAGAPEHCIQWVEKPSLEATKQLMNHDKVALVLATGGAGMVKSAYSTGKPALGVGPGNVPAYIDKTAKIKRSVNDIILSKSFDQGMICASEQAVIVDKEVAKEVKAEMEANKCYFVKGAEFKKLESYVINPEKGTLNPDVVGKSPAWIANQAGFKVPEDTKILVAEIKGVGDKYPLSHEKLSPVLAFIEAANQAEAFDRCEEMLVYGGLGHSAVIHSTDKEVQKAFGIRMKACRIIVNAPSAQGGIGDIYNGFIPSLTLGCGSYGKNSVSQNVSATNLLNVKRIADRRNNMQWFKLPPKIFFEKYSTQYLQKMEGVERVFIVTDPGMGSFKYVDVVIEHLKKRGNDVAYQVFADVEPDPSDVTVYKGAELMKDFKPDTIIALGGGSAMDAAKGMWLFYEHPEASFFGLKQKFLDIRKRTFKYPKLGGKAKFVAIPTTSGTGSEVTPFAVITDKENNIKYPLADYELTPDVAIVDAQYVTTVPAHITADTGMDVLTHAIESYVSVMASDYTRGLSIRAIELVFENLRESVLTGDPDAREKMHNASALAGMAFANAFLGINHSLAHKIGPEFHIPHGRANAILMPHVIRYNALKPKKHALFPRYESFRADEDYARISRIIGFPAATTEEGVKSLVDEIIKLGKDVGIDMSLKGQNVAKKDLDAVVDTLADRAFMDQCTTANPKQPLVSELKEIYLEAYKGV
modifications: Listeria monocytogenes
As for B1, in the test with Caco-2 cell monolayers (apical treatment, 1-1000 ng/mL, 48-h period), the “LAP concentration giving maximum reduction in TEER” value fell in the range of 500 to 1000 ng/mL. In addition, the “reduction in TEER” value with Caco-2 cell monolayers (purified recombinant LAP added to both the basolateral and apical compartments) came to 25±2%. The “reduction in TEER” value in the test on Caco-2 cell monolayers (purified recombinant LAP added to the apical compartment) is recorded as 12±1%. In addition, the “reduction in TEER” value in the test with Caco-2 cell monolayers (purified recombinant LAP added to the basolateral compartment) turned out to be 27±1%. Also, in the test with MLCK, the “increase of MLCK protein expression levels” value is 249±9%. In addition, the IL-6 production result in the test on IL-6 is “significantly higher levels”. In the test on NF-κB(p65) (setting [1]), the “increase of IKK-β protein expression” value is 53±2% and the “increase of p65 protein expression” value came to 63±5%. Moreover, the “protein expression levels of IKK-β and p65” value in the test on NF-κB(p65) (Hsp60 knocked-down (hsp60::shRNA) Caco-2 cells, LAP 1 μg/mL) is reported as “basal protein expression levels”. Also, in the test with NF-κB(p65) (LAP 1 μg/mL, 30 min), the “increase of IKKα in the cytosol relative to untreated cells” value turned out to be 267±7%, the “increase of P-p65 in the nucleus relative to untreated cells” value is 120±23% and the “increase of p65 in the nucleus relative to untreated cells” value was 218±32%. For the same molecule, in the test with NF-κB(p65) (setting [2]), the “time of appearance of cytoplasmic phospho-IκBα (Ser32)” value amounted to 15 min; the “time of increase in nuclear p65 and P-p65” value is 30 min. Also, in the test with NF-κB(p65) (LAP 1000 ng/mL, 0-120 min), the “time by which most IκBα was degraded” value is reported as no more than 45 min and the “time of rapid degradation of IκBα” value is no more than 15 min. Besides, in the test with NF-κB(p65) (setting [3]), the “increase of IKK-β protein expression” value is 52±8% and the “increase of p65 protein expression” value was found to be 54±8%. Also, the “translocation of the lap- strain after pre-incubation with exogenous purified LAP” value in the test on L. monocytogenes was “rescued the translocation defect”.
